According to the supplement of paper PMC11316812:
± gives the standard deviation of the averaged measurements.

Assays:
[1] = test system: hTERT-HMEC; assay: percentage of EdU-negative (G0-arrested) nuclei per well, 72 h; higher = more G0 arrest; conditions: reference: sequence is the full UniProt precursor, the tested protein was the secreted form or ectodomain
[2] = test system: MCF7; assay: as above; conditions: reference: sequence is the full UniProt precursor, the tested protein was the secreted form or ectodomain
[3] = protein concentration 0.0225 µM
[4] = protein concentration 0.0131429 µM
[5] = protein concentration 0.131429 µM
[6] = protein concentration 0.03125 µM
[7] = protein concentration 0.3125 µM
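Also: secreted proteins added to cultured cells, EdU pulse at the end, nuclei found by Hoechst imaging, EdU status from nuclear versus surrounding ring intensity ratio, PBS as neutral control.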

With “MSSFGYRTLTVALFTLICCPGSDEKVFEVHVRPKKLAVEPKGSLEVNCSTTCNQPEVGGLETSLDKILLDEQAQWKHYLVSNISHDTVLQCHFTCSGKQESMNSNVSVYQPPRQVILTLQPTLVAVGKSFTIECRVPTVEPLDSLTLFLFRGNETLHYETFGKAAPAPQEATATFNSTADREDGHRNFSCLAVLDLMSRGGNIFHKHSAPKMLEIYEPVSDSQMVIIVTVVSVLLSLFVTSVLLCFIFGQHLRQQRMGTYGVRAAWRRLPQAFRP” the “percentage of EdU-negative” value [1, 3] was 5.54 ± 0.21%, the “percentage of EdU-negative” value ([1]; protein concentration 0.225 µM) was 6.02 ± 0.093% and the “percentage of EdU-negative” value [2, 3] was 24.9 ± 0.91%. The “percentage of EdU-negative” value ([2]; protein concentration 0.225 µM) was 27.28 ± 0.18%.

For “MSGGHQLQLAALWPWLLMATLQAGFGRTGLVLAAAVESERSAEQKAIIRVIPLKMDPTGKLNLTLEGVFAGVAEITPAEGKLMQSHPLYLCNASDDDNLEPGFISIVKLESPRRAPRPCLSLASKARMAGERGASAVLFDITEDRAAAEQLQQPLGLTWPVVLIWGNDAEKLMEFVYKNQKAHVRIELKEPPAWPDYDVWILMTVVGTIFVIILASVLRIRCRPRHSRPDPLQQRTAWAISQLATRRYQASCRQARGEWPDSGSSCSSAPVCAICLEEFSEGQELRVISCLHEFHRNCVDPWLHQHRTCPLCMFNITEGDSFSQSLGPSRSYQEPGRRLHLIRQHPGHAHYHLPAAYLLGPSRSAVARPPRPGPFLPSQEPGMGPRHHRFPRAAHPRAPGEQQRLAGAQHPYAQGWGLSHLQSTSQHPAACPVPLRRARPPDSSGSGESYCTERSGYLADGPASDSSSGPCHGSSSDSVVNCTDISLQGVHGSSSTFCSSLSSDFDPLVYCSPKGDPQRVDMQPSVTSRPRSLDSVVPTGETQVSSHVHYHRHRHHHYKKRFQWHGRKPGPETGVPQSRPPIPRTQPQPEPPSPDQQVTRSNSAAPSGRLSNPQCPRALPEPAPGPVDASSICPSTSSLFNLQKSSLSARHPQRKRRGGPSEPTPGSRPQDATVHPACQIFPHYTPSVAYPWSPEAHPLICGPPGLDKRLLPETPGPCYSNSQPVWLCLTPRQPLEPHPPGEGPSEWSSDTAEGRPCPYPHCQVLSAQPGSEEELEELCEQAV [Q68DV7]”, the “percentage of EdU-negative” value ([1]; protein concentration 0.032 µM) was 4.69 ± 0.58%, the “percentage of EdU-negative” value ([1]; protein concentration 0.32 µM) was 4.96 ± 0.2% and the “percentage of EdU-negative” value ([2]; protein concentration 0.032 µM) was 24.9 ± 1%. For the same sequence, the “percentage of EdU-negative” value ([2]; protein concentration 0.32 µM) was 23.5 ± 1.3%.

In the case of “MRPLLVLLLLGLAAGSPPLDDNKIPSLCPGHPGLPGTPGHHGSQGLPGRDGRDGRDGAPGAPGEKGEGGRPGLPGPRGDPGPRGEAGPAGPTGPAGECSVPPRSAFSAKRSESRVPPPSDAPLPFDRVLVNEQGHYDAVTGKFTCQVPGVYYFAVHATVYRASLQFDLVKNGESIASFFQFFGGWPKPASLSGGAMVRLEPEDQVWVQVGVGDYIGIYASIKTDSTFSGFLVYSDWHSSPVFA [Q9BXJ0]”, the “percentage of EdU-negative” value [1, 3] is reported as 5.51 ± 0.91%, the “percentage of EdU-negative” value ([1]; protein concentration 0.225 µM) is reported as 6.26 ± 0.1% and the “percentage of EdU-negative” value [2, 3] is reported as 23.7 ± 0.35%. The “percentage of EdU-negative” value ([2]; protein concentration 0.225 µM) was 24.3 ± 0.42%.

In the case of “MAPPLRPLARLRPPGMLLRALLLLLLLSPLPGVWCFSELSFVKEPQDVTVTRKDPVVLDCQAHGEVPIKVTWLKNGAKMSENKRIEVLSNGSLYISEVEGRRGEQSDEGFYQCLAMNKYGAILSQKAHLALSTISAFEVQPISTEVHEGGVARFACKISSHPPAVITWEFNRTTLPMTMDRITALPTGVLQIYDVSQRDSGNYRCIAATVAHRRKSMEASLTVIPAKESKSFHTPTIIAGPQNITTSLHQTVVLECMATGNPKPIISWSRLDHKSIDVFNTRVLGNGNLMISDVRLQHAGVYVCRATTPGTRNFTVAMATLTVLAPPSFVEWPESLTRPRAGTARFVCQAEGIPSPKMSWLKNGRKIHSNGRIKMYNSKLVINQIIPEDDAIYQCMAENSQGSILSRARLTVVMSEDRPSAPYNVHAETMSSSAILLAWERPLYNSDKVIAYSVHYMKAEGLNNEEYQVVIGNDTTHYIIDDLEPASNYTFYIVAYMPMGASQMSDHVTQNTLEDVPLRPPEISLTSRSPTDILISWLPIPAKYRRGQVVLYRLSFRLSTENSIQVLELPGTTHEYLLEGLKPDSVYLVRITAATRVGLGESSVWTSHRTPKATSVKAPKSPELHLEPLNCTTISVRWQQDVEDTAAIQGYKLYYKEEGQQENGPIFLDTKDLLYTLSGLDPRRKYHVRLLAYNNIDDGYQADQTVSTPGCVSVRDRMVPPPPPPHHLYAKANTSSSIFLHWRRPAFTAAQIINYTIRCNPVGLQNASLVLYLQTSETHMLVQGLEPNTKYEFAVRLHVDQLSSPWSPVVYHSTLPEAPAGPPVGVKVTLIEDDTALVSWKPPDGPETVVTRYTILYASRKAWIAGEWQVLHREGAITMALLENLVAGNVYIVKISASNEVGEGPFSNSVELAVLPKETSESNQRPKRLDSADAKVYSGYYHLDQKSMTGIAVGVGIALTCILICVLILIYRSKARKSSASKTAQNGTQQLPRTSASLASGNEVGKNLEGAVGNEESLMPMIMPNSFIDAKGGTDLIINSYGPIIKNNSKKKWFFFQDSKKIQVEQPQRRFTPAVCFYQPGTTVLISDEDSPSSPGQTTSFSRPFGVAADTEHSANSEGSHETGDSGRFSHESNDEIHLSSVISTTPPNL [Q2VWP7]”, the “percentage of EdU-negative” value [1, 4] is reported as 4.73 ± 0.2%, the “percentage of EdU-negative” value [1, 5] is reported as 5.16 ± 0.39% and the “percentage of EdU-negative” value [2, 4] is reported as 25.8 ± 0.61%. The “percentage of EdU-negative” value [2, 5] was 25.2 ± 1.5%.

“MLLPKKMKLLLFLVSQMAILALFFHMYSHNISSLSMKAQPERMHVLVLSSWRSGSSFVGQLFGQHPDVFYLMEPAWHVWMTFKQSTAWMLHMAVRDLIRAVFLCDMSVFDAYMEPGPRRQSSLFQWENSRALCSAPACDIIPQDEIIPRAHCRLLCSQQPFEVVEKACRSYSHVVLKEVRFFNLQSLYPLLKDPSLNLHIVHLVRDPRAVFRSRERTKGDLMIDSRIVMGQHEQKLKKEDQPYYVMQVICQSQLEIYKTIQSLPKALQERYLLVRYEDLARAPVAQTSRMYEFVGLEFLPHLQTWVHNITRGKGMGDHAFHTNARDALNVSQAWRWSLPYEKVSRLQKACGDAMNLLGYRHVRSEQEQRNLLLDLLSTWTVPEQIH [Q8NCG5]” was tested, and the “percentage of EdU-negative” value ([1]; protein concentration 0.006 µM) was 5.16 ± 0.29%, the “percentage of EdU-negative” value ([1]; protein concentration 0.06 µM) was 4.77 ± 0.11% and the “percentage of EdU-negative” value ([2]; protein concentration 0.006 µM) was 26 ± 0.23%. The “percentage of EdU-negative” value ([2]; protein concentration 0.06 µM) was 29.1 ± 1.1%.

In the case of “MGLSTVPDLLLPLVLLELLVGIYPSGVIGLVPHLGDREKRDSVCPQGKYIHPQNNSICCTKCHKGTYLYNDCPGPGQDTDCRECESGSFTASENHLRHCLSCSKCRKEMGQVEISSCTVDRDTVCGCRKNQYRHYWSENLFQCFNCSLCLNGTVHLSCQEKQNTVCTCHAGFFLRENECVSCSNCKKSLECTKLCLPQIENVKGTEDSGTTVLLPLVIFFGLCLLSLLFIGLMYRYQRWKSKLYSIVCGKSTPEKEGELEGTTTKPLAPNPSFSPTPGFTPTLGFSPVPSSTFTSSSTYTPGDCPNFAAPRREVAPPYQGADPILATALASDPIPNPLQKWEDSAHKPQSLDTDDPATLYAVVENVPPLRWKEFVRRLGLSDHEIDRLELQNGRCLREAQYSMLATWRRRTPRREATLELLGRVLRDMDLLGCLEDIEEALCGPAALPPAPSLLR”, the “percentage of EdU-negative” value [1, 6] is reported as 4.76 ± 0.43%, the “percentage of EdU-negative” value [1, 7] is reported as 5.34 ± 0.28% and the “percentage of EdU-negative” value [2, 6] is reported as 24.9 ± 3.4%. For the same sequence, the “percentage of EdU-negative” value [2, 7] was 25.5 ± 0.84%.
